{"source": "patent US20220195497A1", "about": "(ROCHE DIAGNOSTICS OPERATIONS, published 2022)", "binders": {"B1": {"name": "4H4-IgG (antibody, V domains shown)", "VH": "CQSLEESGGGLVQPEGSLTLTCTASGFSFSSGYDMCWVRQTPGKGLEWIACISVDSDGVTYYASWAKGRFTISKTSSTTVTLQMTSLTAADTATYFCARGYESSSGVYIPYFTLWGPGTLVTVSS", "VL": "DIVLTQTPASVEAAVGGTVTIKCQASQSIYSYLAWYQHKPGQPPKLLIYKASTLASGVPSRFKGSGSGTEYTLTISDLECADAATYYCQHYYYSSTSGGGVFGGGTEVVVK"}, "B2": {"name": "23C11-IgG (antibody, V domains shown)", "VH": "CQSLEESGGRLVTPGTPLTLTCTASGFSLSNYYMSWVRQAPGKGLEWIGIIYGDDNTYCANWTKGRFTISKTSTTVDLTITSPTTEDTATYFCARGPDYIAAKMDIWGPGTLVTVSL", "VL": "DVVMTQTPASVEAAVGGTVTIKCQASQSISGYLSWYQQKPGQRPKLLIYRASTLESGVPSRFKGSGSGTEFTLTISDLECADAATYYCQCTYGSSTFSSYGNAFGGGTEVVVK"}, "B3": {"name": "6C6-IgG (antibody, V domains shown)", "VH": "QEQLEESGGDLVKPEGSLTLTCTASRFSFSSSYWICWVRQAPGKGLEWIACIYAGDSGSSYYASWAKGRFTVSKTSSTTVTLQTTSLTAADTATYFCARASVGAAYDYFALWGPGTLVTVSS", "VL": "ALVMTQTPASVEAAMGGTVTIKCQASEDVSSHLAWYQQRPGQPPKLLIYGASDLASGVPSRFTGSGSGTQFTLAISDLECADAATYYCQGYYYISDSPYVFGGGTEVVVK"}}, "data": [{"target": "T1, hTK (UniProt P04183 1-234)", "T1 sequence (looked up)": "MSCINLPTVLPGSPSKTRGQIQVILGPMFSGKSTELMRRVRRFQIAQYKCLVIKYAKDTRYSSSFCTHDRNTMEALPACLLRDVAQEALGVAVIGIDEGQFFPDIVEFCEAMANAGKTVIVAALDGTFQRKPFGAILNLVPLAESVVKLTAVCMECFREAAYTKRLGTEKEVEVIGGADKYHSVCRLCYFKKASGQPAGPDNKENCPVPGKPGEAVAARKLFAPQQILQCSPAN", "experiment": "SPR sandwich matrix on hTK; row = primary antibody; secondary antibody (competitor): 6C6-IgG", "values": [{"binder": "B1", "Molar Ratio Epitope Accessibility (MREA)": 0}, {"binder": "B2", "Molar Ratio Epitope Accessibility (MREA)": 0}, {"binder": "B3", "Molar Ratio Epitope Accessibility (MREA)": 0}]}, {"target": "T1, hTK", "experiment": "SPR sandwich matrix on hTK; row = primary antibody; secondary antibody (competitor): 4H4-IgG", "values": [{"binder": "B1", "Molar Ratio Epitope Accessibility (MREA)": 0}, {"binder": "B2", "Molar Ratio Epitope Accessibility (MREA)": 0}, {"binder": "B3", "Molar Ratio Epitope Accessibility (MREA)": 0}]}, {"target": "T1, hTK", "experiment": "SPR sandwich matrix on hTK; row = primary antibody; secondary antibody (competitor): Antibody A", "values": [{"binder": "B1", "Molar Ratio Epitope Accessibility (MREA)": 0.2}, {"binder": "B2", "Molar Ratio Epitope Accessibility (MREA)": 0.2}, {"binder": "B3", "Molar Ratio Epitope Accessibility (MREA)": 0.4}]}, {"target": "T1, hTK", "experiment": "SPR sandwich matrix on hTK; row = primary antibody; secondary antibody (competitor): 23C11-IgG", "values": [{"binder": "B1", "Molar Ratio Epitope Accessibility (MREA)": 0}, {"binder": "B2", "Molar Ratio Epitope Accessibility (MREA)": 0}, {"binder": "B3", "Molar Ratio Epitope Accessibility (MREA)": 0}]}]}
